Experimental data reported in the supplement of paper PMC9233669.
Variants at the floor of the assay were thinned out.

Assays:
biotinyl-Leu-oxazolone = experiment: self-aminoacylation, catalytic enhancement (BLO) (fold over background); higher = more active; k-Seq, kA / k0A0; sequences stand for … in GGGAAUGGAUCCACAUCUACGAAUUC…UUCACUGCAGACUUGACGAAGCUG
How it was run: (§1)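 Working in 50 μL HEPES/NaCl/KCl/MgCl2/CaCl2 buffer with 5% acetonitrile at pH 6.9–7.0, mutagenized RNA pools (0.43 μM; 21-nt variable region) were reacted with 2–1250 μM of each biotinyl-aminoacyl-oxazolone for 90 minutes at room temperature. Streptavidin capture followed, with quantification by triplicate qPCR and Illumina sequencing. Catalytic enhancement is reported as median kA over the uncatalyzed rate, the low-activity peak of a bimodal Gaussian fit to the data.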

biotinyl-Met-oxazolone = experiment: self-aminoacylation, catalytic enhancement (BMO) (fold over background); higher = more active; k-Seq, kA / k0A0; sequences stand for … in GGGAAUGGAUCCACAUCUACGAAUUC…UUCACUGCAGACUUGACGAAGCUG
How it was run: as §1

biotinyl-Trp-oxazolone = experiment: self-aminoacylation, catalytic enhancement (BWO) (fold over background); higher = more active; k-Seq, kA / k0A0; sequences stand for … in GGGAAUGGAUCCACAUCUACGAAUUC…UUCACUGCAGACUUGACGAAGCUG
How it was run: as §1

biotinyl-Ile-oxazolone = experiment: self-aminoacylation, catalytic enhancement (BIO) (fold over background); higher = more active; k-Seq, kA / k0A0; sequences stand for … in GGGAAUGGAUCCACAUCUACGAAUUC…UUCACUGCAGACUUGACGAAGCUG
How it was run: as §1

biotinyl-Phe-oxazolone = experiment: self-aminoacylation, catalytic enhancement (BFO) (fold over background); higher = more active; k-Seq, kA / k0A0; sequences stand for … in GGGAAUGGAUCCACAUCUACGAAUUC…UUCACUGCAGACUUGACGAAGCUG
How it was run: as §1

biotinyl-Val-oxazolone = experiment: self-aminoacylation, catalytic enhancement (BVO) (fold over background); higher = more active; k-Seq, kA / k0A0; sequences stand for … in GGGAAUGGAUCCACAUCUACGAAUUC…UUCACUGCAGACUUGACGAAGCUG
How it was run: as §1

AAGUUUUUUAAUAGUCGCAAG [Fam3.1 aminoacylation ribozyme variant]
self-aminoacylation (biotinyl-Leu-oxazolone): 1.71
self-aminoacylation (biotinyl-Met-oxazolone): 1.58
self-aminoacylation (biotinyl-Trp-oxazolone): 2.02
self-aminoacylation (biotinyl-Ile-oxazolone): 2.01
self-aminoacylation (biotinyl-Phe-oxazolone): 3.28
self-aminoacylation (biotinyl-Val-oxazolone): 1.62

CUACUUCAAACUAUCUGUCUG [Fam1A.1 aminoacylation ribozyme variant]
self-aminoacylation (biotinyl-Leu-oxazolone): 0.767
self-aminoacylation (biotinyl-Met-oxazolone): 0.846
self-aminoacylation (biotinyl-Trp-oxazolone): 0.738
self-aminoacylation (biotinyl-Ile-oxazolone): 0.869
self-aminoacylation (biotinyl-Phe-oxazolone): 1.09
self-aminoacylation (biotinyl-Val-oxazolone): 0.867

AUUCACCGAGGUCAUCGGGCG [Fam2.2 aminoacylation ribozyme variant]
self-aminoacylation (biotinyl-Leu-oxazolone): 3.66
self-aminoacylation (biotinyl-Met-oxazolone): 3.34
self-aminoacylation (biotinyl-Trp-oxazolone): 2.96
self-aminoacylation (biotinyl-Ile-oxazolone): 3.19
self-aminoacylation (biotinyl-Phe-oxazolone): 24.4
self-aminoacylation (biotinyl-Val-oxazolone): 3.86

AUUCACCUAGGUCAUCGUCUG [Fam2.2 aminoacylation ribozyme variant]
self-aminoacylation (biotinyl-Leu-oxazolone): 0.717
self-aminoacylation (biotinyl-Met-oxazolone): 0.67
self-aminoacylation (biotinyl-Trp-oxazolone): 0.376
self-aminoacylation (biotinyl-Ile-oxazolone): 0.663
self-aminoacylation (biotinyl-Phe-oxazolone): 0.312
self-aminoacylation (biotinyl-Val-oxazolone): 0.718

AGUCACCCAGGUCAUCGGGUG [Fam2.2 aminoacylation ribozyme variant]
self-aminoacylation (biotinyl-Leu-oxazolone): 4.72
self-aminoacylation (biotinyl-Met-oxazolone): 4.56
self-aminoacylation (biotinyl-Trp-oxazolone): 4.54
self-aminoacylation (biotinyl-Ile-oxazolone): 5.28
self-aminoacylation (biotinyl-Phe-oxazolone): 57.4
self-aminoacylation (biotinyl-Val-oxazolone): 4.29

CUACUACAAAAAAUCGGUCUG [Fam1A.1 aminoacylation ribozyme variant]
self-aminoacylation (biotinyl-Leu-oxazolone): 0.678
self-aminoacylation (biotinyl-Met-oxazolone): 0.857
self-aminoacylation (biotinyl-Trp-oxazolone): 0.762
self-aminoacylation (biotinyl-Ile-oxazolone): 0.774
self-aminoacylation (biotinyl-Phe-oxazolone): 0.76
self-aminoacylation (biotinyl-Val-oxazolone): 0.765

GAAUUUGCUAAUAGUCGCAAG [Fam3.1 aminoacylation ribozyme variant]
self-aminoacylation (biotinyl-Leu-oxazolone): 1.38
self-aminoacylation (biotinyl-Met-oxazolone): 1.51
self-aminoacylation (biotinyl-Trp-oxazolone): 1.79
self-aminoacylation (biotinyl-Ile-oxazolone): 1.81
self-aminoacylation (biotinyl-Phe-oxazolone): 2.52
self-aminoacylation (biotinyl-Val-oxazolone): 1.53

CUACUUCAAACAUUCGGUCCG [Fam1A.1 aminoacylation ribozyme variant]
self-aminoacylation (biotinyl-Leu-oxazolone): 0.959
self-aminoacylation (biotinyl-Met-oxazolone): 0.978
self-aminoacylation (biotinyl-Trp-oxazolone): 1.52
self-aminoacylation (biotinyl-Ile-oxazolone): 0.823
self-aminoacylation (biotinyl-Phe-oxazolone): 0.323
self-aminoacylation (biotinyl-Val-oxazolone): 0.884

AUUCACCUAGGUCAUCGUUUG [Fam2.2 aminoacylation ribozyme variant]
self-aminoacylation (biotinyl-Leu-oxazolone): 0.556
self-aminoacylation (biotinyl-Met-oxazolone): 0.542
self-aminoacylation (biotinyl-Trp-oxazolone): 0.31
self-aminoacylation (biotinyl-Ile-oxazolone): 0.592
self-aminoacylation (biotinyl-Phe-oxazolone): 0.512
self-aminoacylation (biotinyl-Val-oxazolone): 0.771

AUUCACCUAGGUCCUCGGGUA [Fam2.2 aminoacylation ribozyme variant]
self-aminoacylation (biotinyl-Leu-oxazolone): 1.71
self-aminoacylation (biotinyl-Met-oxazolone): 2.26
self-aminoacylation (biotinyl-Trp-oxazolone): 3
self-aminoacylation (biotinyl-Ile-oxazolone): 2.44
self-aminoacylation (biotinyl-Phe-oxazolone): 1.16
self-aminoacylation (biotinyl-Val-oxazolone): 2.39

UCACACUUCAAGCAAUCGGUU [Fam1B.1 aminoacylation ribozyme variant]
self-aminoacylation (biotinyl-Leu-oxazolone): 1.6
self-aminoacylation (biotinyl-Met-oxazolone): 1.48
self-aminoacylation (biotinyl-Trp-oxazolone): 6.74
self-aminoacylation (biotinyl-Ile-oxazolone): 1.3
self-aminoacylation (biotinyl-Phe-oxazolone): 8.21
self-aminoacylation (biotinyl-Val-oxazolone): 1.58

AUUCACCUGGUCAUCGAGUGA [Fam2.1 aminoacylation ribozyme variant]
self-aminoacylation (biotinyl-Leu-oxazolone): 5.93
self-aminoacylation (biotinyl-Met-oxazolone): 5.88
self-aminoacylation (biotinyl-Trp-oxazolone): 8.2
self-aminoacylation (biotinyl-Ile-oxazolone): 3.55
self-aminoacylation (biotinyl-Phe-oxazolone): 9.12
self-aminoacylation (biotinyl-Val-oxazolone): 3.58

AUUACCCUGGUCAUCGAUUAA [Fam2.1 aminoacylation ribozyme variant]
self-aminoacylation (biotinyl-Leu-oxazolone): 0.933
self-aminoacylation (biotinyl-Met-oxazolone): 0.935
self-aminoacylation (biotinyl-Trp-oxazolone): 0.619
self-aminoacylation (biotinyl-Ile-oxazolone): 1.02
self-aminoacylation (biotinyl-Phe-oxazolone): 0.508
self-aminoacylation (biotinyl-Val-oxazolone): 1.1

CCGCACUUCAAGCAACCGGUC [Fam1B.1 aminoacylation ribozyme variant]
self-aminoacylation (biotinyl-Leu-oxazolone): 1.1
self-aminoacylation (biotinyl-Met-oxazolone): 1.47
self-aminoacylation (biotinyl-Trp-oxazolone): 1.56
self-aminoacylation (biotinyl-Ile-oxazolone): 1.47
self-aminoacylation (biotinyl-Phe-oxazolone): 1.29
self-aminoacylation (biotinyl-Val-oxazolone): 1.54

AUUAUCCUGGUCACCGAGUGA [Fam2.1 aminoacylation ribozyme variant]
self-aminoacylation (biotinyl-Leu-oxazolone): 8.43
self-aminoacylation (biotinyl-Met-oxazolone): 7.82
self-aminoacylation (biotinyl-Trp-oxazolone): 8.39
self-aminoacylation (biotinyl-Ile-oxazolone): 3.11
self-aminoacylation (biotinyl-Phe-oxazolone): 54
self-aminoacylation (biotinyl-Val-oxazolone): 3.84

GUUACCCAGGUCAUCGAGUGA [Fam2.1 aminoacylation ribozyme variant]
self-aminoacylation (biotinyl-Leu-oxazolone): 6.2
self-aminoacylation (biotinyl-Met-oxazolone): 6.63
self-aminoacylation (biotinyl-Trp-oxazolone): 7.86
self-aminoacylation (biotinyl-Ile-oxazolone): 4.24
self-aminoacylation (biotinyl-Phe-oxazolone): 22.2
self-aminoacylation (biotinyl-Val-oxazolone): 3.78

AUGACCCUGUUCAUCGAGUGA [Fam2.1 aminoacylation ribozyme variant]
self-aminoacylation (biotinyl-Leu-oxazolone): 5.72
self-aminoacylation (biotinyl-Met-oxazolone): 4.75
self-aminoacylation (biotinyl-Trp-oxazolone): 6.05
self-aminoacylation (biotinyl-Ile-oxazolone): 3.16
self-aminoacylation (biotinyl-Phe-oxazolone): 17.7
self-aminoacylation (biotinyl-Val-oxazolone): 3.03

AUUACCCUGGUCAUUGUGUGA [Fam2.1 aminoacylation ribozyme variant]
self-aminoacylation (biotinyl-Leu-oxazolone): 2.23
self-aminoacylation (biotinyl-Met-oxazolone): 2.59
self-aminoacylation (biotinyl-Trp-oxazolone): 3.23
self-aminoacylation (biotinyl-Ile-oxazolone): 1.46
self-aminoacylation (biotinyl-Phe-oxazolone): 8.81
self-aminoacylation (biotinyl-Val-oxazolone): 1.49

CCAUACUUCAAGCAAUCUGUC [Fam1B.1 aminoacylation ribozyme variant]
self-aminoacylation (biotinyl-Leu-oxazolone): 0.384
self-aminoacylation (biotinyl-Met-oxazolone): 0.439
self-aminoacylation (biotinyl-Trp-oxazolone): 0.251
self-aminoacylation (biotinyl-Ile-oxazolone): 0.536
self-aminoacylation (biotinyl-Phe-oxazolone): 0.503
self-aminoacylation (biotinyl-Val-oxazolone): 0.555

AUUCACCGAGGUCUUCGGGUG [Fam2.2 aminoacylation ribozyme variant]
self-aminoacylation (biotinyl-Leu-oxazolone): 7.58
self-aminoacylation (biotinyl-Met-oxazolone): 4.94
self-aminoacylation (biotinyl-Trp-oxazolone): 6.52
self-aminoacylation (biotinyl-Ile-oxazolone): 3.97
self-aminoacylation (biotinyl-Phe-oxazolone): 40.7
self-aminoacylation (biotinyl-Val-oxazolone): 4.69

AUUCUCAUAGGUCAUCGGGUG [Fam2.2 aminoacylation ribozyme variant]
self-aminoacylation (biotinyl-Leu-oxazolone): 13.5
self-aminoacylation (biotinyl-Met-oxazolone): 10.8
self-aminoacylation (biotinyl-Trp-oxazolone): 10.6
self-aminoacylation (biotinyl-Ile-oxazolone): 5.71
self-aminoacylation (biotinyl-Phe-oxazolone): 82.5
self-aminoacylation (biotinyl-Val-oxazolone): 6.14

CUACUUCAAAUAAUCGGUCUA [Fam1A.1 aminoacylation ribozyme variant]
self-aminoacylation (biotinyl-Leu-oxazolone): 0.727
self-aminoacylation (biotinyl-Met-oxazolone): 0.659
self-aminoacylation (biotinyl-Trp-oxazolone): 3.51
self-aminoacylation (biotinyl-Ile-oxazolone): 0.795
self-aminoacylation (biotinyl-Phe-oxazolone): 7.72
self-aminoacylation (biotinyl-Val-oxazolone): 0.78

AAGUAUGCUAACAGUCGCAAG [Fam3.1 aminoacylation ribozyme variant]
self-aminoacylation (biotinyl-Leu-oxazolone): 1.45
self-aminoacylation (biotinyl-Met-oxazolone): 1.42
self-aminoacylation (biotinyl-Trp-oxazolone): 4.66
self-aminoacylation (biotinyl-Ile-oxazolone): 1.82
self-aminoacylation (biotinyl-Phe-oxazolone): 13.3
self-aminoacylation (biotinyl-Val-oxazolone): 1.54

AUUCACCUAGGUCGUUGGGUG [Fam2.2 aminoacylation ribozyme variant]
self-aminoacylation (biotinyl-Leu-oxazolone): 1.52
self-aminoacylation (biotinyl-Met-oxazolone): 1.42
self-aminoacylation (biotinyl-Trp-oxazolone): 1.23
self-aminoacylation (biotinyl-Ile-oxazolone): 1.35
self-aminoacylation (biotinyl-Phe-oxazolone): 3.95
self-aminoacylation (biotinyl-Val-oxazolone): 1.2

AUUCACCUUAGUCAUCGGGUG [Fam2.2 aminoacylation ribozyme variant]
self-aminoacylation (biotinyl-Leu-oxazolone): 7.94
self-aminoacylation (biotinyl-Met-oxazolone): 6.02
self-aminoacylation (biotinyl-Trp-oxazolone): 5.66
self-aminoacylation (biotinyl-Ile-oxazolone): 3.73
self-aminoacylation (biotinyl-Phe-oxazolone): 38.8
self-aminoacylation (biotinyl-Val-oxazolone): 3.83

CCCCCCUUCAAGCAAUCGGUC [Fam1B.1 aminoacylation ribozyme variant]
self-aminoacylation (biotinyl-Leu-oxazolone): 3.18
self-aminoacylation (biotinyl-Met-oxazolone): 2
self-aminoacylation (biotinyl-Trp-oxazolone): 44.8
self-aminoacylation (biotinyl-Ile-oxazolone): 1.88
self-aminoacylation (biotinyl-Phe-oxazolone): 80.1
self-aminoacylation (biotinyl-Val-oxazolone): 2.67
